Assay results reported in the supplement of paper PMC7877785.
± gives the uncertainty stated by the source.

Assay: self-splicing fitness, log relative to wild type (ln ratio); higher = more splicing; Tetrahymena group I intron in knt gene, E. coli kanamycin selection, DiMSum; sequences stand for … in CUCUCU…GGAGGGAAAAGUUAUCAGGCAUGCACCUGGUAGCUAGUCUUUAAACCAAUAGAUUGCAUCGGUUUAAAAGGCAAGACCGUCAAAUUGCGGGAAAGGGGUCAACAGCCGUUCAGUACCAAGUCUCAGGGGAAACUUUGAGAUGGCCUUGCAAAGGGUAUGGUAAUAAGCUGACGGACAUGGUCCUAACCACGCAGCCAAGUCCUAAGUCAACAGAUCUUCUGUUGAUAUGGAUGCAGUUCACAGACUAAAUGUCGGUCGGGGAAGAUGUAUUCUUCUCAUAAGAUAUAGUCGGACCUCUCCUUAAUGGGAGCUAGCGGAUGAAGUGAUGCAACACUGGAGCCGCUGGGAACUAAUUUGUAUGCGAAAGUAUAUUGAUUAGUUUUGGAGUACUCGUGGUCG
In short: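 Pooled colonies went to amplicon sequencing on an Illumina HiSeq 2500 after six replicate transformations. The plates were LB agar with 100 μg/mL carbenicillin, 50 μM IPTG and 0.2% rhamnose, with or without 25 μg/mL kanamycin, incubated overnight at 37°C or 30°C. The E. coli BL21(DE3) library had all eight P1ex-region intron nucleotides randomised, the intron placed in the knt kanamycin-resistance gene on pET-22b(+). DiMSum fitness is the error-weighted combination of replicate fold changes, kanamycin against none, normalised to wild type.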

Row | Sequence | self-splicing fitness (ln) (30 °C) | self-splicing fitness (ln) (37 °C)
1 | UAUCAGCAAUAUUACGCCUA | 0.206 ± 0.11 | 0.701 ± 0.13
2 | UAUCAGCAAUAUUACGCGAC | -3.07 ± 0.37 | -2.3 ± 0.33
3 | UAUCAGCAAUAUUACGCGUC | -2.53 ± 0.11 | -0.926 ± 0.12
4 | UAUCAGCAAUAUUACGGAAC | -1.44 ± 0.21 | –
5 | UAUCAGCAAUAUUACGGAAU | -2.23 ± 0.1 | -1.27 ± 0.12
6 | UAUCAGCAAUAUUACGGACC | -2.13 ± 0.13 | -1.39 ± 0.15
7 | UAUCAGCAAUAUUACGGAUG | -1.11 ± 0.084 | 0.0808 ± 0.091
8 | UAUCAGCAAUAUUACGGCAG | -0.148 ± 0.075 | 0.0916 ± 0.089
9 | UAUCAGCAAUAUUACGGCCC | -2.13 ± 0.28 | -1.05 ± 0.39
10 | UAUCAGCAAUAUUACGGCGU | -0.864 ± 0.087 | -0.578 ± 0.087
11 | UAUCAGCAAUAUUACGGCUC | -1.86 ± 0.17 | -0.563 ± 0.18
12 | UAUCAGCAAUAUUACGGCUU | -1.03 ± 0.075 | -0.106 ± 0.11
13 | UAUCAGCAAUAUUACGGGCU | -2.72 ± 0.21 | -2.23 ± 0.3
14 | UAUCAGCAAUAUUACGGUCA | -0.435 ± 0.057 | 0.0755 ± 0.071
15 | UAUCAGCAAUAUUACGUAGG | -2.1 ± 0.097 | -1.09 ± 0.088
16 | UAUCAGCAAUAUUACGUAUC | -2.11 ± 0.08 | -0.822 ± 0.096
17 | UAUCAGCAAUAUUACGUAUG | -0.321 ± 0.042 | 0.475 ± 0.058
18 | UAUCAGCAAUAUUACGUCGA | -1.16 ± 0.1 | 0.104 ± 0.12
19 | UAUCAGCAAUAUUACGUGCU | -3.64 ± 0.21 | -2.1 ± 0.16
20 | UAUCAGCAAUAUUACGUGGA | -1.05 ± 0.098 | -0.739 ± 0.099
21 | UAUCAGCAAUAUUACGUGGU | -3.97 ± 0.2 | -0.774 ± 0.13
22 | UAUCAGCAAUAUUACGUUGC | -3.53 ± 0.18 | -2.37 ± 0.15
23 | UAUGAGCAAUAUUACGAAAG | -2.55 ± 0.39 | –
24 | UAUGAGCAAUAUUACGAGCA | -2.47 ± 0.17 | -2.09 ± 0.31
25 | UAUGAGCAAUAUUACGAGUA | -2.16 ± 0.19 | -0.862 ± 0.18

Row | Sequence | self-splicing fitness (ln) (30 °C) | self-splicing fitness (ln) (37 °C)
26 | UAUGAGCAAUAUUACGAUCA | -2.24 ± 0.16 | -1.27 ± 0.14
27 | UAUGAGCAAUAUUACGAUCU | -1.76 ± 0.23 | -2 ± 0.31
28 | UAUGAGCAAUAUUACGAUGA | -1.41 ± 0.12 | -1.68 ± 0.16
29 | UAUGAGCAAUAUUACGAUGU | -4.02 ± 0.37 | -3.62 ± 0.46
30 | UAUGAGCAAUAUUACGCACA | -0.923 ± 0.21 | -0.282 ± 0.21
31 | UAUGAGCAAUAUUACGCGGU | -3.41 ± 0.21 | -2.68 ± 0.3
32 | UAUGAGCAAUAUUACGGACU | -3.55 ± 0.4 | -2.46 ± 0.26
33 | UAUGAGCAAUAUUACGGAGG | -3.2 ± 0.17 | -2.53 ± 0.29
34 | UAUGAGCAAUAUUACGGUAG | -1.79 ± 0.37 | -1.88 ± 0.36
35 | UAUGAGCAAUAUUACGUCAC | -4.15 ± 0.46 | -2.26 ± 0.49
36 | UAUGAGCAAUAUUACGUUCG | -1.45 ± 0.091 | -0.169 ± 0.12
37 | UAUUAGCAAUAUUACGAACA | -0.315 ± 0.16 | 0.101 ± 0.14
38 | UAUUAGCAAUAUUACGAACG | -0.156 ± 0.12 | 0.194 ± 0.14
39 | UAUUAGCAAUAUUACGAACU | -1.27 ± 0.11 | -0.806 ± 0.13
40 | UAUUAGCAAUAUUACGAGAA | – | -2.92 ± 0.47
41 | UAUUAGCAAUAUUACGAGCU | -2.63 ± 0.26 | 0.924 ± 0.21
42 | UAUUAGCAAUAUUACGAGGA | -2.33 ± 0.19 | -1.54 ± 0.18
43 | UAUUAGCAAUAUUACGAGUG | -0.139 ± 0.069 | 0.196 ± 0.087
44 | UAUUAGCAAUAUUACGAUCG | -0.211 ± 0.12 | 0.607 ± 0.18
45 | UAUUAGCAAUAUUACGCAAA | -1.67 ± 0.3 | -1.83 ± 0.27
46 | UAUUAGCAAUAUUACGCAUG | -0.961 ± 0.081 | -0.197 ± 0.11
47 | UAUUAGCAAUAUUACGCCCA | -0.378 ± 0.23 | -0.366 ± 0.3
48 | UAUUAGCAAUAUUACGCGCG | -0.142 ± 0.17 | -0.528 ± 0.17
49 | UAUUAGCAAUAUUACGCGCU | -0.731 ± 0.15 | -0.558 ± 0.18
50 | UAUUAGCAAUAUUACGCUCG | -0.476 ± 0.17 | 0.237 ± 0.2

Row | Sequence | self-splicing fitness (ln) (30 °C) | self-splicing fitness (ln) (37 °C)
51 | UAUUAGCAAUAUUACGGCCG | -0.0472 ± 0.19 | 0.135 ± 0.31
52 | UAUUAGCAAUAUUACGGGCG | -0.882 ± 0.076 | 0.185 ± 0.083
53 | UAUUAGCAAUAUUACGGUGA | -1.92 ± 0.12 | -1.33 ± 0.11
54 | UAUUAGCAAUAUUACGUACA | -0.773 ± 0.22 | -0.493 ± 0.23
55 | UAUUAGCAAUAUUACGUAGU | -2.56 ± 0.26 | -2.47 ± 0.35
56 | UAUUAGCAAUAUUACGUGAU | -2.82 ± 0.17 | -1.99 ± 0.18
57 | UAUUAGCAAUAUUACGUGGC | – | -1.84 ± 0.39
58 | UAUUAGCAAUAUUACGUGUC | -3.34 ± 0.39 | –
59 | UCAAAGCAAUAUUACGAAAA | – | -2.95 ± 0.27
60 | UCAAAGCAAUAUUACGAACG | -0.696 ± 0.076 | -0.646 ± 0.11
61 | UCAAAGCAAUAUUACGAAUG | -1.71 ± 0.11 | -1.67 ± 0.25
62 | UCAAAGCAAUAUUACGAGAC | -3.15 ± 0.17 | -2.76 ± 0.22
63 | UCAAAGCAAUAUUACGAGUG | -0.846 ± 0.048 | -0.965 ± 0.067
64 | UCAAAGCAAUAUUACGAUCU | -2.82 ± 0.13 | -0.778 ± 0.12
65 | UCAAAGCAAUAUUACGCAAG | -2.18 ± 0.14 | -1.48 ± 0.15
66 | UCAAAGCAAUAUUACGCAUC | -3.83 ± 0.19 | -3.11 ± 0.31
67 | UCAAAGCAAUAUUACGCAUU | -3.2 ± 0.4 | -3.34 ± 0.37
68 | UCAAAGCAAUAUUACGCCAC | -2.5 ± 0.24 | -2.07 ± 0.38
69 | UCAAAGCAAUAUUACGCCAG | -1.35 ± 0.13 | -0.892 ± 0.18
70 | UCAAAGCAAUAUUACGCCCG | -1.66 ± 0.2 | -0.884 ± 0.27
71 | UCAAAGCAAUAUUACGCCCU | -3.06 ± 0.44 | -0.887 ± 0.18
72 | UCAAAGCAAUAUUACGCGAA | -1.88 ± 0.11 | -0.986 ± 0.12
73 | UCAAAGCAAUAUUACGCGCU | -3.63 ± 0.47 | -2.53 ± 0.45
74 | UCAAAGCAAUAUUACGCGGA | -2.87 ± 0.13 | -1.37 ± 0.11
75 | UCAAAGCAAUAUUACGCUGC | -3.2 ± 0.43 | -2.49 ± 0.33

Row | Sequence | self-splicing fitness (ln) (30 °C) | self-splicing fitness (ln) (37 °C)
76 | UCAAAGCAAUAUUACGGCUG | -0.827 ± 0.056 | 0.231 ± 0.078
77 | UCAAAGCAAUAUUACGGGAC | -1.98 ± 0.2 | -1.75 ± 0.25
78 | UCAAAGCAAUAUUACGGGCG | -0.842 ± 0.065 | -0.266 ± 0.083
79 | UCAAAGCAAUAUUACGGGGA | -0.69 ± 0.075 | -0.383 ± 0.085
80 | UCAAAGCAAUAUUACGUCUA | -1.92 ± 0.1 | -0.787 ± 0.098
81 | UCAAAGCAAUAUUACGUGAA | -1.42 ± 0.069 | -1.06 ± 0.1
82 | UCAAAGCAAUAUUACGUGGU | -4.25 ± 0.26 | -2.19 ± 0.18
83 | UCAAAGCAAUAUUACGUUUG | -3.43 ± 0.16 | -1.82 ± 0.14
84 | UCACAGCAAUAUUACGAAAG | -3.82 ± 0.25 | -2.73 ± 0.23
85 | UCACAGCAAUAUUACGAGCA | -1.28 ± 0.081 | 0.102 ± 0.089
86 | UCACAGCAAUAUUACGAGCC | -2.07 ± 0.22 | -2.3 ± 0.5
87 | UCACAGCAAUAUUACGCAGA | -2.54 ± 0.12 | -2.16 ± 0.14
88 | UCACAGCAAUAUUACGCAUU | -2.93 ± 0.22 | –
89 | UCACAGCAAUAUUACGCCAC | – | -3.66 ± 0.3
90 | UCACAGCAAUAUUACGCCCC | -0.433 ± 0.3 | -1.51 ± 0.41
91 | UCACAGCAAUAUUACGCGGA | -1.81 ± 0.18 | -2.12 ± 0.27
92 | UCACAGCAAUAUUACGCGUC | -3.18 ± 0.31 | -1.55 ± 0.16
93 | UCACAGCAAUAUUACGCUAA | -2.39 ± 0.12 | -2.27 ± 0.18
94 | UCACAGCAAUAUUACGCUCU | -2.38 ± 0.16 | -3.34 ± 0.47
95 | UCACAGCAAUAUUACGCUUG | -2.14 ± 0.12 | 0.263 ± 0.1
96 | UCACAGCAAUAUUACGGAAA | -3.16 ± 0.24 | -1.85 ± 0.18
97 | UCACAGCAAUAUUACGGCAC | -2.93 ± 0.27 | -2.49 ± 0.31
